From paper PMC9482650, “Quantitative fragmentomics allow affinity mapping of interactomes” (Nature Communications, 2022)
Values belong to the binder of their own block, whether it stands above or below them.

Experiments:
Test in all cases: holdup assay
Design in all cases: key: below the threshold = too weak to quantify, mostly under pKd 3.1 to 4
Conditions in all cases: plain residues with an end cap or a label only (N-terminal biotin on a linker: ado-ado)
GORASP1, Q9BQQ3 = target: GORASP1, Q9BQQ3
Chain of GORASP1, Q9BQQ3 (Q9BQQ3 1-208): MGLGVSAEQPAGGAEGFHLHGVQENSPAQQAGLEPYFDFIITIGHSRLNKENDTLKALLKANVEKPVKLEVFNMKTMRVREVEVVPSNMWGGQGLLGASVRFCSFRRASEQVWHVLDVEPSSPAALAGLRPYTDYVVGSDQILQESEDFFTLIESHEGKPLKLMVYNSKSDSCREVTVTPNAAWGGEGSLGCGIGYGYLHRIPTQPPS

GRIP1_5, Q9Y3R0 = target: T1, GRIP1_5, Q9Y3R0
T1 sequence (Q9Y3R0 568-668, limits assumed, looked up): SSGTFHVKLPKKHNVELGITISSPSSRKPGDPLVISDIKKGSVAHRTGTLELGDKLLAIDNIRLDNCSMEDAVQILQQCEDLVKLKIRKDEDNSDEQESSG

GRIP1_3, Q9Y3R0 = target: T2, GRIP1_3, Q9Y3R0
T2 sequence (Q9Y3R0 247-346, limits assumed, looked up): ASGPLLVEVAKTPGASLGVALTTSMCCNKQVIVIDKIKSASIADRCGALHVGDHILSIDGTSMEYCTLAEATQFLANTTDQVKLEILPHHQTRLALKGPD

PTPN3, P26045 = target: PTPN3, P26045
Chain of PTPN3, P26045 (P26045 505-587): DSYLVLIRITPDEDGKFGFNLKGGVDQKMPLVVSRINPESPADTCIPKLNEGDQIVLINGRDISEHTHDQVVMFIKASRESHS

MAGI2_6, Q86UL8 = target: MAGI2_6, Q86UL8
Chain of MAGI2_6, Q86UL8 (Q86UL8 1141-1229): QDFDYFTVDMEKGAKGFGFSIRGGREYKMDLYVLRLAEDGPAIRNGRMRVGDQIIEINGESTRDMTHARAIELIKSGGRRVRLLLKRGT

DFNB31_3, Q9P202 = target: T3, DFNB31_3, Q9P202
T3 sequence (Q9P202 811-907, limits assumed, looked up): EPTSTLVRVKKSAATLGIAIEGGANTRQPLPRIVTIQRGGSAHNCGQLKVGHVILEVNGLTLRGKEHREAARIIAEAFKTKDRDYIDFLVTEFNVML

MAGI3_2, Q5TCQ9 = target: MAGI3_2, Q5TCQ9
Chain of MAGI3_2, Q5TCQ9 (Q5TCQ9 398-503): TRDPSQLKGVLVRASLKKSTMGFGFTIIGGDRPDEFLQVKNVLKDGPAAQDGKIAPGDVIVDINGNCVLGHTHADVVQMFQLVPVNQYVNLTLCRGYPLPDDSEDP

MAGI2_2, Q86UL8 = target: MAGI2_2, Q86UL8
Chain of MAGI2_2, Q86UL8 (Q86UL8 410-522): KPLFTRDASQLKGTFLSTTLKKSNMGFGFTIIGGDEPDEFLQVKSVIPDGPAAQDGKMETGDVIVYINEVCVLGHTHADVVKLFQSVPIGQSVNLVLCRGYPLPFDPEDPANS

DLG1_3, Q12959 = target: DLG1_3, Q12959
Chain of DLG1_3, Q12959 (Q12959 457-571): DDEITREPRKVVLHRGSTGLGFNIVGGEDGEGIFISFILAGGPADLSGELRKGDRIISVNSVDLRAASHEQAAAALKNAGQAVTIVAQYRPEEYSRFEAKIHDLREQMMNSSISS

Inadl_1, Q8NI35 = target: Inadl_1, Q8NI35
Chain of Inadl_1, Q8NI35 (Q8NI35 113-229): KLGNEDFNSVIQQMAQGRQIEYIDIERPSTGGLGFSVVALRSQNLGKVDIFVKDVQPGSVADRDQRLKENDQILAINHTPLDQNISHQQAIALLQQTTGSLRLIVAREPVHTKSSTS

DLG2_3, Q15700 = target: DLG2_3, Q15700
GRIP2_5, Q9C0E4 = target: GRIP2_5, Q9C0E4
Chain of GRIP2_5, Q9C0E4 (Q9C0E4 544-642): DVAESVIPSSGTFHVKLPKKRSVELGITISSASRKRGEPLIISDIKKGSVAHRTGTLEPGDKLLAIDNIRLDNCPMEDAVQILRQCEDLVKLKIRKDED

NHERF4_2, Q86UT5 = target: NHERF4_2, Q86UT5
Chain of NHERF4_2, Q86UT5 (Q86UT5 220-308): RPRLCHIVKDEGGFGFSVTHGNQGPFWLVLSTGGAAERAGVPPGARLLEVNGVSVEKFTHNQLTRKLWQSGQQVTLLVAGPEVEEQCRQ

DLG1_2, Q12959 = target: DLG1_2, Q12959
Chain of DLG1_2, Q12959 (Q12959 314-412): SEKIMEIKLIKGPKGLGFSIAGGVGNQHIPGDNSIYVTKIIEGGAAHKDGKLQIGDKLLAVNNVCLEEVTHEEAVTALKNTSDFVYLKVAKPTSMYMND

SCRIB_3, Q14160 = target: SCRIB_3, Q14160
Chain of SCRIB_3, Q14160 (Q14160 999-1103): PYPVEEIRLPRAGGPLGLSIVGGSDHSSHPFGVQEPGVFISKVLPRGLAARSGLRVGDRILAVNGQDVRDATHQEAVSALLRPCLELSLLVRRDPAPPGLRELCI

NHERF3_1, Q5T2W1 = target: T4, NHERF3_1, Q5T2W1
T4 sequence (Q5T2W1 4-100, limits assumed, looked up): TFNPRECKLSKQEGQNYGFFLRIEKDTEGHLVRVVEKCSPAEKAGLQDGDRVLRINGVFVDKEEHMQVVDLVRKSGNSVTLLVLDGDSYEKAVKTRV

CARD11, Q9BXL7 = target: T5, CARD11, Q9BXL7
T5 sequence (Q9BXL7 662-765, limits assumed, looked up): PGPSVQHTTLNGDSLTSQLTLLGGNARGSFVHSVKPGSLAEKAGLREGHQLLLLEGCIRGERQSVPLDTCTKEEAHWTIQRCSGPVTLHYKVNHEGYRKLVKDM

FRMPD2_2, Q68DX3 = target: FRMPD2_2, Q68DX3
Chain of FRMPD2_2, Q68DX3 (Q68DX3 944-1038): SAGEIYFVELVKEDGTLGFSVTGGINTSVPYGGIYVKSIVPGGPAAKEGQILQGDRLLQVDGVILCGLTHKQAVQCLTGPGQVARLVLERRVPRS

MPDZ_10, O75970 = target: T6, MPDZ_10, O75970
T6 sequence (O75970 1624-1722, limits assumed, looked up): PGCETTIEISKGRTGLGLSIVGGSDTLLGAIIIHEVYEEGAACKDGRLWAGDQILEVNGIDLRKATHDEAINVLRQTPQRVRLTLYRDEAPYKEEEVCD

LNX2_3, Q8N448 = target: T7, LNX2_3, Q8N448
T7 sequence (Q8N448 463-564, limits assumed, looked up): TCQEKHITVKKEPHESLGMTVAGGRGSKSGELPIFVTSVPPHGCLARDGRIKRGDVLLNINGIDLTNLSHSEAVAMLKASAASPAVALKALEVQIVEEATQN

Inadl_4, Q8NI35 = target: Inadl_4, Q8NI35
Chain of Inadl_4, Q8NI35 (Q8NI35 547-651): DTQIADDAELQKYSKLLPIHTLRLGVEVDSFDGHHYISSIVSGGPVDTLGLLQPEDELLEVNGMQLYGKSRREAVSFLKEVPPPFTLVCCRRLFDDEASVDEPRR

SNTA1, Q13424 = target: T8, SNTA1, Q13424
T8 sequence (Q13424 82-180, limits assumed, looked up): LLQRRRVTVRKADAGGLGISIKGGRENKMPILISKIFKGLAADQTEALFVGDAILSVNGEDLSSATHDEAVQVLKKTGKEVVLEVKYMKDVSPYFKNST

HTRA2, O43464 = target: HTRA2, O43464
Chain of HTRA2, O43464 (O43464 355-458): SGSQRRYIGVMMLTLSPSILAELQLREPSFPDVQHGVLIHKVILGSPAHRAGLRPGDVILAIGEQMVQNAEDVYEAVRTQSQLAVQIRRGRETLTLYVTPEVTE

MAGI2_5, Q86UL8 = target: MAGI2_5, Q86UL8
Chain of MAGI2_5, Q86UL8 (Q86UL8 915-1017): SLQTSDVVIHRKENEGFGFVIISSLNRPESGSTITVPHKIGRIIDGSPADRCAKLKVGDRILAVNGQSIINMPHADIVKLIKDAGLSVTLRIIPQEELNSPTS

ARHGEF11, O15085 = target: T9, ARHGEF11, O15085
T9 sequence (O15085 42-136, limits assumed, looked up): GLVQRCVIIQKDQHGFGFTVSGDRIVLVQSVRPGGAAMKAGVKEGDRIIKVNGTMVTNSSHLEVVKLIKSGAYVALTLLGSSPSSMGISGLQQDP

RADIL, Q96JH8 = target: T10, RADIL, Q96JH8
T10 sequence (Q96JH8 971-1071, limits assumed, looked up): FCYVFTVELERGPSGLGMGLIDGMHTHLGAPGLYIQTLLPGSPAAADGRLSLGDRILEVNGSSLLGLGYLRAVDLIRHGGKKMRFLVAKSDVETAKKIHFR

GRIP2_3, Q9C0E4 = target: GRIP2_3, Q9C0E4
Chain of GRIP2_3, Q9C0E4 (Q9C0E4 238-339): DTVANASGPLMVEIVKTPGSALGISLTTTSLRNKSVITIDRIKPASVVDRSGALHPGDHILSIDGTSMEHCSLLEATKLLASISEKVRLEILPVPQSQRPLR

Binder: RTQSSDSAYV [GJD2, Q9UKL4]
pKd (GORASP1, Q9BQQ3): 3.67
pKd (GRIP1_5, Q9Y3R0): below the threshold
pKd (GRIP1_3, Q9Y3R0): below the threshold
pKd (PTPN3, P26045): 3.52
pKd (MAGI2_6, Q86UL8): 3.58
pKd (DFNB31_3, Q9P202): below the threshold
pKd (MAGI3_2, Q5TCQ9): below the threshold
pKd (MAGI2_2, Q86UL8): below the threshold
pKd (DLG1_3, Q12959): below the threshold
pKd (Inadl_1, Q8NI35): below the threshold
pKd (DLG2_3, Q15700): below the threshold
pKd (GRIP2_5, Q9C0E4): below the threshold
pKd (NHERF4_2, Q86UT5): below the threshold
pKd (DLG1_2, Q12959): 3.88
pKd (SCRIB_3, Q14160): below the threshold
pKd (NHERF3_1, Q5T2W1): 4.95
pKd (CARD11, Q9BXL7): below the threshold
pKd (FRMPD2_2, Q68DX3): below the threshold
pKd (MPDZ_10, O75970): below the threshold
pKd (LNX2_3, Q8N448): below the threshold
pKd (Inadl_4, Q8NI35): below the threshold
pKd (SNTA1, Q13424): below the threshold
pKd (HTRA2, O43464): below the threshold
pKd (MAGI2_5, Q86UL8): below the threshold
pKd (ARHGEF11, O15085): 4.21
pKd (RADIL, Q96JH8): 4.43
pKd (GRIP2_3, Q9C0E4): below the threshold

Binder: RQSILFSTEV [BCR, P11274]
pKd (GORASP1, Q9BQQ3): below the threshold
pKd (GRIP1_5, Q9Y3R0): below the threshold
pKd (GRIP1_3, Q9Y3R0): below the threshold
pKd (PTPN3, P26045): 4.59
pKd (MAGI2_6, Q86UL8): 4.67
pKd (DFNB31_3, Q9P202): below the threshold
pKd (MAGI3_2, Q5TCQ9): 4.13
pKd (MAGI2_2, Q86UL8): 3.7
pKd (DLG1_3, Q12959): 4.06
pKd (Inadl_1, Q8NI35): 3.88
pKd (DLG2_3, Q15700): 4
pKd (GRIP2_5, Q9C0E4): below the threshold
pKd (NHERF4_2, Q86UT5): below the threshold
pKd (DLG1_2, Q12959): 4.85
pKd (SCRIB_3, Q14160): 4.58
pKd (NHERF3_1, Q5T2W1): 5.78
pKd (CARD11, Q9BXL7): below the threshold
pKd (FRMPD2_2, Q68DX3): 4.12
pKd (MPDZ_10, O75970): 3.62
pKd (LNX2_3, Q8N448): below the threshold
pKd (Inadl_4, Q8NI35): below the threshold
pKd (SNTA1, Q13424): 4.47
pKd (HTRA2, O43464): below the threshold
pKd (MAGI2_5, Q86UL8): 5.17
pKd (ARHGEF11, O15085): 5.19
pKd (RADIL, Q96JH8): 4.48
pKd (GRIP2_3, Q9C0E4): 3.69

Binder: PLDSQQHTEV [FAT1, Q14517]
pKd (GORASP1, Q9BQQ3): below the threshold
pKd (GRIP1_5, Q9Y3R0): below the threshold
pKd (GRIP1_3, Q9Y3R0): below the threshold
pKd (PTPN3, P26045): 4.5
pKd (MAGI2_6, Q86UL8): 4.26
pKd (DFNB31_3, Q9P202): below the threshold
pKd (MAGI3_2, Q5TCQ9): 3.71
pKd (MAGI2_2, Q86UL8): below the threshold
pKd (DLG1_3, Q12959): below the threshold
pKd (Inadl_1, Q8NI35): below the threshold
pKd (DLG2_3, Q15700): below the threshold
pKd (GRIP2_5, Q9C0E4): below the threshold
pKd (NHERF4_2, Q86UT5): below the threshold
pKd (DLG1_2, Q12959): 4.99
pKd (SCRIB_3, Q14160): 4.2
pKd (NHERF3_1, Q5T2W1): below the threshold
pKd (CARD11, Q9BXL7): below the threshold
pKd (FRMPD2_2, Q68DX3): 3.73
pKd (MPDZ_10, O75970): below the threshold
pKd (LNX2_3, Q8N448): below the threshold
pKd (Inadl_4, Q8NI35): below the threshold
pKd (SNTA1, Q13424): 4.22
pKd (HTRA2, O43464): below the threshold
pKd (MAGI2_5, Q86UL8): 4.54
pKd (ARHGEF11, O15085): 4.67
pKd (RADIL, Q96JH8): 3.89
pKd (GRIP2_3, Q9C0E4): below the threshold

Binder: LTAQEQPVYI [APBA1, Q02410]
pKd (GORASP1, Q9BQQ3): 3.87
pKd (GRIP1_5, Q9Y3R0): below the threshold
pKd (GRIP1_3, Q9Y3R0): below the threshold
pKd (PTPN3, P26045): 3.61
pKd (MAGI2_6, Q86UL8): below the threshold
pKd (DFNB31_3, Q9P202): 3.5
pKd (MAGI3_2, Q5TCQ9): below the threshold
pKd (MAGI2_2, Q86UL8): 3.52
pKd (DLG1_3, Q12959): below the threshold
pKd (Inadl_1, Q8NI35): below the threshold
pKd (DLG2_3, Q15700): 3.68
pKd (GRIP2_5, Q9C0E4): below the threshold
pKd (NHERF4_2, Q86UT5): below the threshold
pKd (DLG1_2, Q12959): below the threshold
pKd (SCRIB_3, Q14160): below the threshold
pKd (NHERF3_1, Q5T2W1): below the threshold
pKd (CARD11, Q9BXL7): below the threshold
pKd (FRMPD2_2, Q68DX3): below the threshold
pKd (MPDZ_10, O75970): below the threshold
pKd (LNX2_3, Q8N448): below the threshold
pKd (Inadl_4, Q8NI35): below the threshold
pKd (SNTA1, Q13424): below the threshold
pKd (HTRA2, O43464): 3.53
pKd (MAGI2_5, Q86UL8): below the threshold
pKd (ARHGEF11, O15085): 4.21
pKd (RADIL, Q96JH8): 4.53
pKd (GRIP2_3, Q9C0E4): below the threshold

The next lines start with the values.

pKd (GORASP1, Q9BQQ3): 3.78
pKd (GRIP1_5, Q9Y3R0): below the threshold
pKd (GRIP1_3, Q9Y3R0): below the threshold
pKd (PTPN3, P26045): 4.02
pKd (MAGI2_6, Q86UL8): below the threshold
pKd (DFNB31_3, Q9P202): 3.5
pKd (MAGI3_2, Q5TCQ9): 4.4
pKd (MAGI2_2, Q86UL8): 4.2
pKd (DLG1_3, Q12959): below the threshold
pKd (Inadl_1, Q8NI35): below the threshold
pKd (DLG2_3, Q15700): below the threshold
pKd (GRIP2_5, Q9C0E4): below the threshold
pKd (NHERF4_2, Q86UT5): below the threshold
pKd (DLG1_2, Q12959): 3.82
pKd (SCRIB_3, Q14160): 4.41
pKd (NHERF3_1, Q5T2W1): 4.79
pKd (CARD11, Q9BXL7): below the threshold
pKd (FRMPD2_2, Q68DX3): below the threshold
pKd (MPDZ_10, O75970): below the threshold
pKd (LNX2_3, Q8N448): below the threshold
pKd (Inadl_4, Q8NI35): below the threshold
pKd (SNTA1, Q13424): below the threshold
pKd (HTRA2, O43464): below the threshold
pKd (MAGI2_5, Q86UL8): below the threshold
pKd (ARHGEF11, O15085): 3.85
pKd (RADIL, Q96JH8): 3.94
pKd (GRIP2_3, Q9C0E4): below the threshold
Binder: SRPTKGPTLL [PLEKHH2, Q8IVE3]

pKd (GORASP1, Q9BQQ3): below the threshold
pKd (GRIP1_5, Q9Y3R0): below the threshold
pKd (GRIP1_3, Q9Y3R0): below the threshold
pKd (PTPN3, P26045): 5.05
pKd (MAGI2_6, Q86UL8): 3.93
pKd (DFNB31_3, Q9P202): below the threshold
pKd (MAGI3_2, Q5TCQ9): 3.84
pKd (MAGI2_2, Q86UL8): below the threshold
pKd (DLG1_3, Q12959): below the threshold
pKd (Inadl_1, Q8NI35): below the threshold
pKd (DLG2_3, Q15700): below the threshold
pKd (GRIP2_5, Q9C0E4): below the threshold
pKd (NHERF4_2, Q86UT5): below the threshold
pKd (DLG1_2, Q12959): 4.04
pKd (SCRIB_3, Q14160): 4.7
pKd (NHERF3_1, Q5T2W1): 4.51
pKd (CARD11, Q9BXL7): below the threshold
pKd (FRMPD2_2, Q68DX3): below the threshold
pKd (MPDZ_10, O75970): below the threshold
pKd (LNX2_3, Q8N448): below the threshold
pKd (Inadl_4, Q8NI35): below the threshold
pKd (SNTA1, Q13424): 4.7
pKd (HTRA2, O43464): below the threshold
pKd (MAGI2_5, Q86UL8): 4.02
pKd (ARHGEF11, O15085): 3.94
pKd (RADIL, Q96JH8): below the threshold
pKd (GRIP2_3, Q9C0E4): below the threshold
Binder: PELESKESVL [SLC1A4, P43007]
